Read-outs that look alike come from different tables or passages of the source.

We go through seven molecules from patent publication US20210393690A1 (JUNO THERAPEUTICS, published 2021).

Experiment [1] addresses T1, human BCMA peptide 30SNTPPLTCQR39 (human).
T1 construct: Peptide of the CLIPS array; could be recognized in a linear form
T1 peptide: SNTPPLTCQR
Description: CLIPS peptide array ELISA. On the procedure: (§1) Epitopes recognized, e.g., specifically bound to, by exemplary anti-BCMA scFv clones (BCMA-1, BCMA-5, BCMA-9, BCMA-23, BCMA-25, BCMA-26, BCMA-52 and BCMA-55 anti-BCMA scFvs), were assessed using full discontinuous epitope mapping by Chemical Linkage of Peptides onto Scaffolds (CLIPS; Pepscan Presto BV, Lelystad, The Netherlands; see, e.g., Timmerman et al., (2007) J. Mol. Recognit. 20: 283-329). Mapping was carried out using anti-BCMA scFv clones, such as those fused with mouse Fc (scFv-mFc).
(§2) Linear and conformational peptide libraries of amino acid residues 1-54 of human BCMA (set forth as amino acid residues 1-54 of SEQ ID NO:164) were generated based on a combinatorial matrix design. Linear peptides and structural mimetics including single loop, α-helix, β-turn, combinatorial and linear disulfide bridge mimics, and discontinuous epitope mimics were used, along with positive and negative control peptides, on an amino-functionalized solid support.
(§3) Affinities for binding to the peptides in the epitope library were determined using ELISA. The peptide arrays were incubated with a solution containing the scFv overnight at 4° C. Affinity information was used in iterative screens to define the sequence and conformation of epitopes. Heat maps of affinity information for two or more loops were generated.
On the technique in general: ELISA stands for enzyme-linked immunosorbent assay.

The target of experiment [2] is T2, human BCMA amino acid residues 1-54 (linear and conformational CLIPS peptide libraries) (human).
T2 construct: Not one polypeptide in the assay: arrays of linear peptides and structural mimetics that cover residues 1-54
T2 chain: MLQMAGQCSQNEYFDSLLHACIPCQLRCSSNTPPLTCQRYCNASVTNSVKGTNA
Briefly: CLIPS peptide array ELISA. As to the method: as §1, §2, §3

Experiment [3] addresses T3, recombinant human BCMA-hFc (soluble human BCMA fused at its C-terminus to an Fc region of IgG) (human, UniProt Q02223 1-54, limits assumed, biotinylated in the KinExA experiment of p-1044 (site not stated)).
T3 construct: also called rhBCMA hFc; BCMA-Fc; not shown: Fc region of IgG (hFc)
T3 sequence (looked up): T2 chain
Briefly: Biacore-based assay; scFv-Fc and recombinant human BCMA fusion protein; scFv-Fc fusion, Biacore-based assay. (In SPR one partner is held on a chip, and binding of the other changes the refractive index at the surface.)

In experiment [4] the target is T3, recombinant human BCMA-hFc (soluble …). Briefly: cell-based or functional assay.
For experiment [5], the target named is T4, cynoBCMA coated on 96-well flat-bottom plates (cynomolgus monkey). Description: cell-based or functional assay.
T4 sequence (chain, as listed by the source): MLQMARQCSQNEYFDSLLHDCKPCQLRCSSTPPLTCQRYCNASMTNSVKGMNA
Experiment [6] concerns the target T4, cynoBCMA coated on 96-well flat-bottom …. Briefly: cell-based or functional assay. This is another data set of the same source.
The target of experiment [7] is T3, recombinant human BCMA-hFc (soluble …). Description: kinetics exclusion assay; CAR expressed in a Jurkat T cell line, soluble rhBCMA hFc; CAR on Jurkat cells, kinetics exclusion assay.
Experiment [8] has the same target. Briefly: KinExA kinetic exclusion analysis; serially diluted CAR-expressing Jurkat cells equilibrated with 20 nM or 1 nM biotinylated rhBCMA hFc. On the procedure:
In a further experiment, Jurkat cells were transduced with a polynucleotide encoding a CAR with a BCMA-55-derived scFv binding domain and were cultured to a density of ˜2×10⁶. The cells were harvested and spun at 1500 g for 15 minutes at 4° C. The cell pellet was washed and cells were resuspended and serially diluted in 20 nM or 1 nM biotinylated rhBCMA hFc (also referred to in this assay as the constant binding partner (CBP). After equilibration, cells were spun down and supernatants were harvested for KinExa kinetic exclusion analysis. Briefly, supernatants from equilibrated BCMA-55-LS CAR O/SSE-expressing Jurkat cells containing rhBCMA hFc were flowed over a streptavidin bead flow cell to capture free biotinylated rhBCMA hFc. The rhBCMA was then detected using a secondary anti-hBCMA antibody that was fluorescently labelled. The […] of the detected rhBCMA hFc was recorded for each sample, and plotted against the number of cells in each dilution (Darling (2004) Assay Drug. Dev., 2:647-657).

B1: BCMA-25 anti-BCMA scFv (scFv)
scFv: EVQLVQSGGGLVQPGRSLRLSCTASGFTFGDYAMSWFRQAPGKGLEWVGFIRSKAYGGTTEYAASVKGRFTISRDDSKSIAYLQMNSLKTEDTAVYYCAAWSAPTDYWGQGTLVTVSSGGGGSGGGGSGGGGSDIQMTQSPAFLSASVGDRVTVTCRASQGISNYLAWYQQKPGNAPRLLIYSASTLQSGVPSRFRGTGYGTEFSLTIDSLQPEDFATYYCQQSYTSRQTFGPGTRLDIK
As for B1, in experiment [1], the binding result was “binds”.

B2: BCMA-23 anti-BCMA scFv (scFv)
scFv: EVQLVESGGGLVKPGGSLRLSCAASGFTFSDYYMSWIRQAPGKGLEWVSYISSSGSTIYYADSVKGRFTISRDNAKNSLYLQMNSLRAEDTAVYYCAKVDGDYTEDYWGQGTLVTVSSGGGGSGGGGSGGGGSQSALTQPASVSGSPGQSITISCTGSSSDVGKYNLVSWYQQPPGKAPKLIIYDVNKRPSGVSNRFSGSKSGNTATLTISGLQGDDEADYYCSSYGGSRSYVFGTGTKVTVL
As to B2, the binding result in experiment [1] is reported as “binds”.

B3: BCMA-55-scFv-mFc (Fc fusion, not shown: a dimerising Fc or GST)
chain: QSALTQPASVSASPGQSIAISCTGTSSDVGWYQQHPGKAPKLMIYEDSKRPSGVSNRFSGSKSGNTASLTISGLQAEDEADYYCSSNTRSSTLVFGGGTKLTVLGSRGGGGSGGGGSGGGGSLEMAEVQLVQSGAEMKKPGASLKLSCKASGYTFIDYYVYWMRQAPGQGLESMGWINPNSGGTNYAQKFQGRVTMTRDTSISTAYMELSRLRSDDTAMYYCARSQRDGYMDYWGQGTLVTVSS
Turning to B3, in experiment [2], the binding result is on record as “binds”.

B4: BCMA-55 scFv-Fc fusion protein (Fc fusion)
chain: B3 chain
notes: Fc fusion protein containing the scFv portion of the BCMA-55 CAR; also called BCMA-55-Fc; not shown: Fc region
For B4, the Kd in experiment [3] was roughly 10 nM.

B5: BCMA-52-scFv-mFc (Fc fusion, not shown: a dimerising Fc or GST)
chain: SYELTQPPSASGTPGQRVTMSCSGTSSNIGSHSVNWYQQLPGTAPKLLIYTNNQRPSGVPDRFSGSKSGTSASLAISGLQSEDEADYYCAAWDGSLNGLVFGGGTKLTVLGSRGGGGSGGGGSGGGGSLEMAEVQLVQSGAEVKKPGESLKISCKGSGYSFTSYWIGWVRQMPGKGLEWMGIIYPGDSDTRYSPSFQGHVTISADKSISTAYLQWSSLKASDTAMYYCARYSGSFDNWGQGTLVTVSS
Take B5: the binding result in experiment [2] is “binds”.

B6: BCMA-55-LS-O/SSE CAR (other)
chain: QSALTQPASVSASPGQSIAISCTGTSSDVGWYQQHPGKAPKLMIYEDSKRPSGVSNRFSGSKSGNTASLTISGLQAEDEADYYCSSNTRSSTLVFGGGTKLTVLGSRGGGGSGGGGSGGGGSLEMAEVQLVQSGAEMKKPGASLKLSCKASGYTFIDYYVYWMRQAPGQGLESMGWINPNSGGTNYAQKFQGRVTMTRDTSISTAYMELSRLRSDDTAMYYCARSQRDGYMDYWGQGTLVTVSSESKYGPPCPPCPAPPVAGPSVFLFPPKPKDTLMISRTPEVTCVVVDVSQEDPEVQFNWYVDGVEVHNAKTKPREEQFQSTYRVVSVLTVLHQDWLNGKEYKCKVSNKGLPSSIEKTISKAKGQPREPQVYTLPPSQEEMTKNQVSLTCLVKGFYPSDIAVEWESNGQPENNYKTTPPVLDSDGSFFLYSRLTVDKSRWQEGNVFSCSVMHEALHNHYTQKSLSLSLGKMFWVLVVVGGVLACYSLLVTVAFIIFWVKRGRKKLLYIFKQPFMRPVQTTQEEDGCSCRFPEEEEGGCELRVKFSRSADAPAYQQGQNQLYNELNLGRREEYDVLDKRRGRDPEMGGKPRRKNPQEGLYNELQKDKMAEAYSEIGMKGERRRGKGHDGLYQGLSTATKDTYDALHMQALPPR
notes: Chimeric antigen receptor on the surface of Jurkat cells, Jurkat Nur77 reporter cells or primary T cells; also called BCMA-55-LS CAR; BCMA-55-L CAR
With B6, the “EC50 (read off the curve)” value was roughly 0.2 µg/mL in experiment [4], roughly 1 µg/mL in experiment [5] and roughly 0.9 µg/mL in experiment [6]. Also, the values for the Kd in experiment [7] and in experiment [8] were roughly 1 nM and roughly 1.46 nM, respectively.

B7: BCMA-26 anti-BCMA scFv (scFv)
scFv: EVQLVESGGGLVKPGGSLRLSCAASGFTFSDYYMSWIRQAPGKGLEWVSYISSSGSTIYYADSVKGRFTISRDNAKNSLYLQMNSLRAEDTAVYYCAKVDGPPSFDIWGQGTMVTVSSGGGGSGGGGSGGGGSSYVLTQPPSVSVAPGQTARITCGANNIGSKSVHWYQQKPGQAPMLVVYDDDDRPSGIPERFSGSNSGNTATLTISGVEAGDEADYFCHLWDRSRDHYVFGTGTKLTVL
Consider B7, for which the binding result in experiment [2] is on record as “binds”.

What is called Kd is the constant that tells how readily two partners part at equilibrium. For orientation: EC50 (read off the curve) means the concentration needed to bring the measured effect to its halfway point.
